From publication PMC3298473, “Effects of partner proteins on BCA2 RING ligase activity” (BMC Cancer, 2012)

Experiments:
[1] = target: T1, Recombinant Flag-BCA2 RING mutant (C228/231A), purified (human, UniProt Q9Y4L5 1-304, C228/231A | C228/231A); assay: pull-down; purified recombinant Flag-BCA2 (wild type or mutants) incubated with sepharose-immobilised GST control or GST-14-3-3σ from bacterial cell lysates; immunoblot; conditions: both partners purified
T1 construct: BCA2, a 304 amino acid protein, with C228A and C231A in the RING domain (ligase-dead); also called RING mt; source: recombinant, purified
T1 sequence (Q9Y4L5 other isoform, or with tags, fused parts or gaps C228/231A | C228/231A | C228/231A | C228/231A | mutant): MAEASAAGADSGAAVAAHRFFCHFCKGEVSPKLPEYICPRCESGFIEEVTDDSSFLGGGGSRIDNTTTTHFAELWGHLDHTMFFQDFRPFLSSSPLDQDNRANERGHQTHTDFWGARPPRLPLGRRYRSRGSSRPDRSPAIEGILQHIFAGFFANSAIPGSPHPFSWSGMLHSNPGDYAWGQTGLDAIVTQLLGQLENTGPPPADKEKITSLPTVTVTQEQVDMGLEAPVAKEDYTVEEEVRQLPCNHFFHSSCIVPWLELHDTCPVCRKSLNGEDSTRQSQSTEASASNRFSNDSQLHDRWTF

[2] = target: T2, Recombinant Flag-BCA2, wild type, purified (human, UniProt Q9Y4L5 1-304); assay: as above; conditions: both partners purified
T2 construct: BCA2, a 304 amino acid protein; also called Purified recombinant wild-type BCA2; source: recombinant, purified
T2 sequence (Q9Y4L5 whole entry): as the sequence (Q9Y4L5 other isoform, or with tags, fused parts or gaps C228/231A | C228/231A | C228/231A | C228/231A | mutant) above, with A228C, A231C counted along it

B1: GST-tagged 14-3-3σ (natural protein, human, UniProt P31947 1-248, looked up)
chain: MERASLIQKAKLAEQAERYEDMAAFMKGAVEKGEELSCEERNLLSVAYKNVVGGQRAAWRVLSSIEQKSNEEGSEEKGPEVREYREKVETELQGVCDTVLGLLDSHLIKEAGDAESRVFYLKMKGDYYRYLAEVATGDDKKRIIDSARSAYQEAMDISKKEMPPTNPIRLGLALNFSVFHYEIANSPEEAISLAKTTFDEAMADLHTLSEDSYKDSTLIMQLLRDNLTLWTADNAGEEGGEAPQEPQS
notes: 14-3-3σ; the GST construct is not described in the methods; also called GST-14-3-3σ; source: bacterial cell lysates, immobilised on sepharose
binding result [1]: binds
binding result [2]: binds
